From a protein production outcome set (Wang et al. 2014)

Assay: label from the status in PepcDB records
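Further: failed if final PepcDB status was selected cloned or expressed and not failed if soluble or beyond.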

## MTTPEGGARKPRIGIMGEFSAGKSTLSNLLLGQRILPEQVTATRLPPVWIVQGDKPAQRAALDGSLHPMSLVDLEEISLEETLYVKIGIDAPVLDECDLIDFPGISDPNMPSEVWERMLAEVDSVLWCTHATQAWRQSEAAAWGMVPEAVRQRSLLLITRFDKLTTPLDKLRVQTRVARETEGLFAGVCPISLTEALAAAPDSPEWEASGAETFADALEAVVRAAACGGLPEAMPAQTQLTAPAAPEPAEPSTSAPQPAPGRVMPRRVRPKGETRTPRPSARPQAADQDLSALRREMQET
  protein production: failed

## ATDVAARGLDISGVTHVYNYDIPQDPESYVHRIGRTGRAGKEGMAITFVQPREMGYLRIVEETTKKRMQPLQAPTWDEAFAGQLRVATEKIQEAITEENLADYKTFANELLEKYDATDIAAAMLKMLAKEPDKTPVHITEERPLPSRGGGGYKGK
  protein production: not failed

## MNTTLFRWPVRVYYEDTDAGGVVYHASYVAFYERARTEMLRHHHFSQQALMAERVAFVVRKMTVEYYAPARLDDMLEIQTEITSMRGTSLVFTQRIVNAENTLLNEAEVLVVCVDPLKMKPRALPKSIVAEFKQ
  protein production: not failed

## MTADLFDGLDDAPRRQDIAPGAALLSGFARANERELLAAIDAVVARAPFRHMMTPGGHTMSVAMTSCGSVGWVTDRRGYRYSPNDPDSATPWPKMPAVLRDLAQRAAADVGFAGFDPDACLINRYVPGAKMALHQDKDEADFSAPIVSVSLGLPAIFQFGGMARSDKPRRYELRHGDVLVWGGPSRLVYHGVLTLKDGEHPLLGRQRINLTFRKAL
  protein production: failed

## LLKVEFYKLKRSKVFYLFIVLMIMQSMFVLIPIKENYLLNKTGQDMFLQSFPLQEFIFNTLIIGAFGYFIGKEFHSGYIKNLIVSGHKRINIVLSKAIVFCIGVAIISFIFPICTFVINSIRNGYGEKYSVEYMFEVSVIMLFVYLAIGSIVTMISFITKNIAITIALFYLI
  protein production: failed

## MLYFDHWTKVPADIWRWPNFSPEEIACRSTGKVGIDPQAMDKLQALRDRLGAPLMLNSAYRSPEHNRAEGGAPASEHLKARAFDVSMINHDPAEFEAAARAVGFTGFGFYRRNNFIHVDIGPAREWGNRWFDRVPHGAPLRPAPRFSPPPKLRPETLAEDRGARGTALGAGGGVALIGALGNVVGDLNPTAQAIAFGGAIVLAASLAYLIRDKIREWA
  protein production: failed

## TDINSLRTRLRSGEHAFADTLAFIADGYDYQPQPFRNGDVDNAAGQNEGSCKTLGLALLEGLSDEEALLAFGEHYRSVQATPEGSDHGNIRALIKHGLAGVTFEGEPLKRK
  protein production: not failed

## MPALDLIRPSVTAMRVIASVNAEFARELKLPPHIRSLGLISADSDDVTYIAADEATKQAMVEVVYGRSLYAGAAHGPSPTAGEVLIMLGGPNPAEVRAGLDAMVANIENGAAFQWANDAENTAFLAHVVSRTGSYLSSTAGITLGDPMAYLVAPPLEATYGIDAALKSADVQLVTYVPPPSETNYSAAFLTGSQAACKAACNAFTDAVLEIARNPIQRA
  protein production: not failed

## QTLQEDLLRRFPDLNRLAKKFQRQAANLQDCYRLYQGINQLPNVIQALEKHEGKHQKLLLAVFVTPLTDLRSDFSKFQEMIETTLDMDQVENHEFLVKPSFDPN
  protein production: failed

## MDPRQFEHTVVADNDIHSIVMSYLLHNCFNETADSLASSTGVKQPAIDRDNMERRKQIIHFILERKALKAFELTEQLAQDLLEKNKDLQFDLLCLHFVELICAGNCTEALKFGKTRLAPFGKVKKYVEKLEDVMALLAYEDPEKSPMFHLLSSEYRQQVADNLNRTILEHTNHPSYTPMERIIQQVTVVRQYLTEENGKDAFPPFSLKDSLKG
  protein production: failed

## MAAGPEPPEWEPRWRKALRGKENKGSVEIMRKDLNDARDLHGQAESAAAVWKGHVMDRRKKALTDYKKLRAFFVEEEEHFLQEAEKDEGASEDDELADPADRFRSLLQAVSELEKKHRNLGLSMLLQ
  protein production: not failed

## MYVREVKDGKVVVAKARTSACGSCPAKNICLSDNEIKLEIDWCGEDLKPGDEVVVDIPEYDPLKVSTLVYFLPLVIFAVTVITGYLFRLKDWVTFVLALGSVFAYYSLFRFRRKDRKPPRILRKVS
  protein production: failed

## MKLPHALSHWFPHKYAIDAKRLGDERTLAWSNLGYWADTSDYKTACRQLADGLADAVQLSSTDRLLDLGCGQGASLQHWVEHYQIQSLCAVELQLDHVKRIQHAFPQLEKMIQGSFLDLRPDTFKPHFDVVMCIDAAYHSALTSFLTAVGSVLKSKGRLGFHYLLLSEKWTQLPVWQRQKYKYLLKAADVELDDLADVTTTEHTLRAQGFDQIQIVDMTTDVFGGFARYMASRPYHSKQNIDERKIRATAKLCQYLCDQGIVRYVQIAATKQ
  protein production: failed

## LDQILRATVEEVRAFLGTDRVKVYRFDPEGHGTVVAEARGGERLPSLLGLTFPAGDIPEEARRLFRLAQVRVIVDVEAQSRSISQPESWGLSARVPLGEPLQRPVDPCHVHYLKSMGVASSLVVPLMHHQELWGLLVSHHAEPRPYSQEELQVVQLLADQVSIAIAQAELSL
  protein production: not failed

## HSIVAITDNRGVITHVNEKFCDISQYEYYELVGTTHKIINSGFHPRSFFKQMWKTIAQGNIWKGEICNRTKQGKLYWVDTTIVPLKDND
  protein production: failed

## MPGAEQRWPARAALLLVLIAAAGLARGQETPSGPPPRVAMVVGNSAYQNVPALPNPAGDAELVAEKLWESGFEVIETVDADRETMLADLATFRSRLREGSEALFFYAGHGVQIGGRNYLLPVSVAPSSVEDLKAQAIDAQLFLDVMAQSGARLTLVLLDACRNNPFLDIPSDGAEAIATRALSIGASRAAVERGLRDLAAASRGGLAEMSAGRGEALISFATAPGQVAFDGRGRHSPYTSALAGSIDEPGLELVDLFRRVRGAVREATGGQQIAWTASTLESRFYFKPPADDLRSATTGMSTGSDTLGALPPRRVVDRTFWRAIRDTDRLDAFTAYVRTMPDGAFVAEAKEKIRSLGGDPEAIPVSDLSLPERPRGFVLADPAAQADLAATLDRAPASVPIGTGAARIGAAAGRAGWVHVAAAPRLGAVSAGGTRLEAGSVRWMEADQPLDYLPGIGSNGGLDSLRAEALREGGTTEPLEAAVETYVDACDMLAGNPYDSQRVTAGTRQFILDRNHDAAIAVCEIAVARHPEVVRFWAELARSYRAAGRYEEALHWQQKAVDAGYASAMVYLGQMFLDGQAVPQDFDRARELFEAADARGETAALTALAWIHRAGVGVPEDPARALDFYRQGAARGNDWAMTNIGEFYQKGLSVARDPAEAVRWYTAAAKSGELTAQTRLARMYQTGDGIAVDEAQARFWFETAAGRGVPNALTRLGLMYEQGQGVDRDLEAAARLYGRAAAEGDAEAWLRLGRLEASDAPLFDRPERALPLLEKALAAQVPGAARELGRLYETGRGVTKDLARARALYVQEAGANPWAARDAGRAFASDEGAPADPAQAARWYRAAAEGGVPWAALDLGRLYETGRGVPQDRTEALVLYAAAARPGGDARAADAARRAAAGYSAEETIRAAQLLLGRLGAEVGAPDGRIGPATRDALARVFAAQGRAAPGTRIDFDLLAELSAMDEERLP
  protein production: failed

## GRKVGFRKGPRPGAGPREGGFRNDGPRGEGGYRNDGPRGEGGYRNDGPRGEGPRNEGPRGEGYRNDGPRGEGFRGPRFNNGPSNGYENRQDNNRFGEKRRSAQKPLKVDDEAQFPTLC
  protein production: failed

## MQSTDLGNKESGKIWHRKPSPATHDGIIVNIVHSTSEYHPKVLRFLNVAFDGSGDSFIAGDHQGNIYVFDLHGNRFNLVQRTAQACTALAFNLRRKSEFLVALADYSIKCFDTVTKELVSWMRGHESSVCSISVHASGRYAITTSSDTAQLWDLDTFQRKRKLNIRQSVGIQKVFFLPLSNTILSCFKDNSIFAWECDTLFCKYQLPGPPEGSNILYKVFAVTRDGRILAAGGKSNHLHLWCLEATGLFRIIQMPAKVRAVRHLEFLPDSFDAGSNQVLGVLSQDGIMRFVNIQTCKLLFEIGTVEEGISSSVISPHGRYIASIMENGSLNVYSVQALTQEINKPPPPLVKVIEDLPSNTVSSSNLKMKIMPGRVQRPARCKESKIPTRVLKQDLTGDLENKENELSEGLNKKRLQILLKGYGEYPTKYRMFIWRSLLQLPENHTAFSSLVDKGTHAAYLSLQKKYPIKSRKLLRVLQRTLSALAHWSAIFSDTPYLPLLAFPFVKLFQNNQLICFEVVATLIINWCQHWFEYFPNPPINILSMIENVLAFHDKELLQHFIDRDITSQVYAWPLLETLFSEVLTREEWLRLFDNIFSNHPSFLLMTVVAYSTCSRAPLLNCTLKNDFEYFFHHRNNLDINVVIREVYHLMETTPADIHPNSMLDAFVALTKGQYPIFNQYPKFIVDYQTREWERIRNDELDFLRERQTVENMQAEVDEQRAKDEAWYQKQELLRRAEETRREILLQEEEKMAQQRQRLAAVKRELEIKEIHLQDAARRRLLKLQQDQREMELRRLEDEIERKVQMRDQEIAATAKDLEIRQLELEAQKRLYEKYSFSLSFMQNIV
  protein production: failed

## QNHFHVFVGDLSPQITTEDIKAAFAPFGRISDARVVKDMATGKSKGYGFVSFFNKWDAENAIQQMGGQWLGGRQIRTNWATRKPPAPKSTYES
  protein production: failed

## MQNTTHDNVILELTVRNHPGVMTHVCGLFARRAFNVEGILCLPIQDSDKSHIWLLVNDDQRLEQMISQIDKLEDVVKVQRNQSDPTMFNKIAVFFQ
  protein production: failed

## MKLGKAQSLEDVAGLVGACAVTILAVIIISALYVGREVFVPVALAILLSFVLARPVNFLQSLRVPRAIAAISTVLFAFAVIFALGSLIATQLSRLADDLPQYQSTIQSKITSLRGVTGGSTTLERAEGMLQNLSKELNKPKNAPAPSLSNPPTSSSRPVTPVPVEVLQPDPGTLANLRSLIAPLISPLATTGIIVIFVIFILLQREDLRNRLIRLAGTRDLQRTTAALDDAASRLSRLFLNQLLINSGFGVLIGTGLWIIGVPSPALWGILAAVLRFVPYIGSIISAAFPLTLAVAVDPGWSMLVWTAILFFVIEPAIAHVVEPMVYGRSTGLSPVAVVISATFWTALWGPIGLVLATPLTVCLVVLGRHVERLAFLDVMFGDRPALSPPEIFYQRMLAGDPAEAAEKAEQFLKERSLSSYYDDVALKGLQLAQADLDRDALDAVRLTRIKETVQEFTEDLTDEIDQAPDGDEATTDAEAAAAVEVTPVDHADDDIAVLKPADLKPGWQGAAPVMCIGGRSQLDEAAALMLAHLCRVHGIGARVEPSSALSTKNIFGLDVSNVALICLSYLEASNTTHIRYAVRRLRRKAPHAKIIVALWSAETPQLADTNESAQADATVLTLRDAVKYCVEEAIIEPPPQTIEMPVISEAV
  protein production: failed

## MPNDTHAQTGASGPTTLFTNANVLTVDAEFSTAQAIAIRGNRILAVGSDAEVRAAAGDDATVVDLEGKTVLPGFIDAHAHAVSGSVVDAIMDYVGMARFTTVDEVLNHIATRAAKTPAGDWLVFRNFDPAVQEGADALTFAELDPISTDHPIFILNASGHLAYANSRAFEVSGLTNDVPNPPGGEFVRDADGNLTGTIKNNVAFLQIAENYPAMKQVNPVEGLLGLLGKWSQQGLTTVSELSLGALAQSPADVQVMAAAAQSGRMTARLRAYPFYTLGTETWDNAGVKQGDGNALARVAGYKLVADGSNQGFTGLQREPYLNREDRGLAYMEPDELTTTALERAGKGWHLAIHGNGDAAIDNILDTCQALADAGIDMARVRPRIEHCSILHDEQIARMKALGVSASFLIGHVHYWGVAMRDQVFGLEKAQLLDRCKSVEEAGVGFTLHSDFMVTDPNPLHMIEMAVTRRTWKEPDYVLAPQERISVDSAIRAMTSEAAWQLFSDHEIGSLEPGKLADMVILDQDPRKVAPDEIKAIKVLETWMDGQRVFAA
  protein production: failed

## MIEFDNLTYLHGKPQGTGLLKANPEDFVVVEDLGFEPDGEGEHILVRILKNGCNTRFVADALAKFLKIHAREVSFAGQKDKHAVTEQWLCARVPGKEMPDLSAFQLEGCQVLEYARHKRKLRLGALKGNAFTLVLREVSNRDDVEQRLIDICVKGVPNYFGAQRFGIGGSNLQGAQRWAQTNTPVRDRNKRSFWLSAARSALFNQIVAERLKKADVNQVVDGDALQLAGRGSWFVATTEELAELQRRVNDKELMITAALPGSGEWGTQREALAFEQAAVAAETELQALLVREKVEAARRAMLLYPQQLSWNWWDDVTVEIRFWLPAGSFATSVVRELINTTGDYAHIAE
  protein production: not failed
